# Tested on: dPsCas13b-133FSY (in HEK293T) A133FSY (fluorosulfate-L-tyrosine) (Prevotella sp. P5-125)
# Experiment: pulldown
# Conditions: RIP RT-qPCR in HEK293T; no enrichment without crRNA
substance,measurement,value
crACTB guide ; ACTB mRNA,binding signal (fold over dPsCas13b-WT),4

# Reference: patent publication US20240262791
